The target in test [1] is T1, Claudin 18.2 (CLDN18.2), expressed on CHOS-CLDN 18.2 / HEK293-CLDN 18.2 / HCC827-CLDN 18.2 cells (human, UniProt P56856-2 1-261).
T1 construct: whole, on cells; The species is not repeated for the CHOS-CLDN 18.2 cells; also called claudin-18A2
The test is described as follows: FACS, CHOS-CLDN18.2 cells, 5 µg/ml. Background: In flow cytometry, cells or beads pass a laser one at a time.
Protocol: (§1) The initial concentration of the antibody was 20 μg/ml, it was diluted at 1:4, and incubated at 4° C. for 60 min.

The target of test [2] is T1, Claudin 18.2 (CLDN18.2), expressed on …. The experiment in a line: FACS, CHOS-CLDN18.2 cells, 0.313 µg/ml.
Protocol: as §1
The target is the same in test [3]. The test is described as follows: FACS, CHOS-CLDN18.2 cells, 10 µg/ml.
Protocol: (§2) The initial concentration of the antibody was 20 μg/mkit was diluted at 1:4, and incubated at 4° C. for 60 min.
The target is the same in test [4]. The test is described as follows: FACS, CHOS-CLDN18.2 cells, 1.250 µg/ml.
Protocol: as §1
Test [5] has the same target. The experiment in a line: FACS, CHOS-CLDN18.2 cells, 20 µg/ml.
Protocol: as §1
For test [6] the target is unchanged. The test is described as follows: FACS, CHOS-CLDN18.2 cells, 0.005 µg/ml.
Protocol: as §1
For test [7] the target is unchanged. The test is described as follows: FACS, CHOS-CLDN18.2 cells, 0 µg/ml (background).
Protocol: as §1
For test [8] the target is unchanged. The experiment in a line: FACS, CHOS-CLDN18.2 cells, 0.020 µg/ml.
Protocol: as §1
Test [9] shares this target. The experiment in a line: FACS, CHOS-CLDN18.2 cells, 0.078 µg/ml.
Protocol: as §1
Test [10] has the same target. The experiment in a line: FACS, CHOS-CLDN18.2 cells.
Protocol: as §1
Test [11] has the same target. The experiment in a line: FACS, MFI on CHOS-CLDN18.2 over MFI on CHOS-CLDN18.1, 10 µg/ml.
Protocol: as §2
For test [12] the target is unchanged. The test is described as follows: FACS, CHOS-CLDN18.2 cells, 0.020 µg/ml. The source holds these as a separate data set.
Protocol: as §1
Test [13] shares this target. The test is described as follows: FACS, CHOS-CLDN18.2 cells, 1.250 µg/ml. The source holds these as a separate data set.
Protocol: as §1
The target is the same in test [14]. The test is described as follows: FACS, CHOS-CLDN18.2 cells, 0.078 µg/ml. The source holds these as a separate data set.
Protocol: as §1
For test [15] the target is unchanged. The test is described as follows: FACS, CHOS-CLDN18.2 cells. The source holds these as a separate data set.
Protocol: as §1
The target is the same in test [16]. The experiment in a line: FACS, CHOS-CLDN18.2 cells, 0.313 µg/ml. This is another data set of the same source.
Protocol: as §1
The target is the same in test [17]. The experiment in a line: FACS, CHOS-CLDN18.2 cells, 5 µg/ml. The source holds these as a separate data set.
Protocol: as §1
For test [18] the target is unchanged. The test is described as follows: FACS, CHOS-CLDN18.2 cells, 0.005 µg/ml. The source holds these as a separate data set.
Protocol: as §1
For test [19] the target is unchanged. The experiment in a line: FACS, CHOS-CLDN18.2 cells, 20 µg/ml. The source holds these as a separate data set.
Protocol: as §1
Test [20] has the same target. The test is described as follows: FACS, CHOS-CLDN18.2 cells, 0 µg/ml (background). This is another data set of the same source.
Protocol: as §1

Read-outs that look alike come from different tables or passages of the source.

A word on the EC50: it is the midpoint of the concentration-response curve. Read a high EC50 as a need for much substance.

B1: QP190191 (antibody, human IgG1, V domains shown)
VH: EVKLVESGGGLVKPGGSLKLSCAASGFTFSNYAMSWVRQTPEKRLEWVASIISGGRTYYLDSEKGRFTISRDNARNNLYLQMSSLRSEDTAMYYCTRIYYGNSFDYWGQGTTLTVSS
VL: DIVMTQSPSSQTVTAGEKVTMSCKSSQSLLNSGNQKNYLTWYQQKPGQPPKLLIYWASTRESGVPDRFTGSGSGTDFTLTISNMQAEDLAVYYCQNDYSYPFTFGSGTKLEIK
notes: Chimeric; also called 36A2; mouse-derived chimeric antibody QP190191
On to B1, for which the FACS reading in [1] stood at 148000; in test [2], 54200; in test [4], 114000; in test [5], 88700; in test [6], 2840; in [7], 729. The FACS reading worked out at 8000 in test [8] and 15700 in [9]. The MFI in [3] is 450000. Further, the EC50 in test [10] stood at 0.354 µg/mL. Further, the max in test [10] came to 148000. The “CLDN18.2/CLDN18.1 (MFI ratio)” value in test [11] was determined as 423.

B2: QP14371435 (antibody, human IgG1, kappa, V domains shown)
VH: EVQLVESGGGLVKPGGSLRLSCAASGFTFSNYAMSWVRQAPGKGLEWVASIISGGRTYYLDSEKGRFTISRDNAKNSLYLQMNSLRAEDTAVYYCTRIYYGNSFDYWGQGTLVTVSS
VL: DIVMTQSPDSLAVSLGERATISCKSSQSLLNSGNQKNYLTWYQQKPGQPPKLLIYWASTRESGVPDRFTGSGSGTDFTLTISSLQAEDVAVYYCQNDYSYPFTFGQGTKLEIKR
notes: Humanized from QP190191
With B2, the FACS reading in test [1] is 197000; in test [2] it was 72000; in test [4], 145000; in test [5], 134000; in [6], 4130; in test [7] it was 732. The FACS reading in [8] stood at 10200; in test [9], 18000. Further, in test [3], the MFI is 512000. In addition, in [10], the response was half-maximal at 0.38 µg/mL (EC50). The molecule also yielded a max in test [10] of 197000. For the same molecule, the “CLDN18.2/CLDN18.1 (MFI ratio)” value in [11] is 497.

B3: QP14581454 (antibody, human IgG1, kappa, V domains shown)
VH: QVQLVQSGAEVKKPGASVKVSCKASGYTFTNYFVHWVKQAPGQGLEWIGYINPYNDDTKYNEKFKGKATLTRDTSTSTVYMELSSLRSEDTAVYYCLSLRFFAYWGQGTLVTVSS
VL: DIVMTQSPDSLAVSLGERATISCKSSQSLLNSGNQKNYLTWYQQKPGQAPKLLIYWASTRESGVPDRFSGSGSGTDFTLTISSVQAEDVAVYFCQNDYSYPLTFGGGTKVEIKR
notes: Humanized from QP201202
In the case of B3, in test [3], the MFI was found to be 502000. Also, the FACS reading was found to be 4470 in test [12]; 56100 in [13]; 11500 in [14]; 30800 in test [16]; 73700 in test [17]; 2370 in test [18]. Also, the FACS reading is 58600 in [19] and 732 in test [20]. This molecule had an EC50 in [15] of 0.363 µg/mL. Besides, in test [15], the max was determined as 73700. Besides, the “CLDN18.2/CLDN18.1 (MFI ratio)” value in [11] was determined as 506.

B4: QP14581453 (antibody, human IgG1, kappa, V domains shown)
VH: QVQLVQSGAEVKKPGASVKVSCKASGYTFTNYFVHWVKQAPGQGLEWIGYINPYNDDTKYNEKFKGKATLTRDTSTSTVYMELSSLRSEDTAVYYCLSLRFFAYWGQGTLVTVSS
VL: DIVMTQSPDSLAVSLGERATISCKSSQSLLNSGNQKNYLTWYQQKPGQAPKLLIYWASTRESGVPDRFSGSGSGTDFTLTISSLQAEDVAVYYCQNDYSYPLTFGGGTKVEIKR
notes: Humanized from QP201202
With B4, the MFI in test [3] was found to be 554000. For the same molecule, the FACS reading in test [12] is 5920; in test [13], 91400; in test [14] it was 13600; in test [16], 33300; in test [17] it was 83000; in test [18], 2420. The FACS reading in test [19] amounted to 104000; in test [20], 732. The molecule further gave an EC50 in test [15] of 0.425 µg/mL. This molecule showed a max in test [15] of 104000. Moreover, the “CLDN18.2/CLDN18.1 (MFI ratio)” value in test [11] stood at 581.

B5: QP14561454 (antibody, human IgG1, kappa, V domains shown)
VH: QVQLVQSGAEVKKPGASVKVSCKASGYTFTNYFVHWVRQAPGQGLEWMGYINPYNDDTKYNEKFKGRVTMTRDTSTSTVYMELSSLRSEDTAVYYCLSLRFFAYWGQGTLVTVSS
VL: DIVMTQSPDSLAVSLGERATISCKSSQSLLNSGNQKNYLTWYQQKPGQAPKLLIYWASTRESGVPDRFSGSGSGTDFTLTISSVQAEDVAVYFCQNDYSYPLTFGGGTKVEIKR
notes: Humanized from QP201202
In turn, B5 gave an MFI in test [3] of 477000. In addition, the FACS reading in test [12] is 6390; in test [13], 107000; in [14] it was 13400; in test [16], 44800; in test [17], 114000; in test [18] it was 2470. In addition, the FACS reading in [19] stood at 146000; in test [20], 732. Moreover, in test [15], the EC50 was found to be 0.573 µg/mL. In [15], this molecule came in with a max of 146000. The “CLDN18.2/CLDN18.1 (MFI ratio)” value in test [11] turned out to be 430.

B6: QP14361435 (antibody, human IgG1, kappa, V domains shown)
VH: EVQLVESGGGLVKPGGSLRLSCAASGFTFSNYAMSWVRQAPGKGLEWVSSIISGGRTYYLDSEKGRFTISRDNAKNSLYLQMNSLRAEDTAVYYCTRIYYGNSFDYWGQGTLVTVSS
VL: DIVMTQSPDSLAVSLGERATISCKSSQSLLNSGNQKNYLTWYQQKPGQPPKLLIYWASTRESGVPDRFTGSGSGTDFTLTISSLQAEDVAVYYCQNDYSYPFTFGQGTKLEIKR
notes: Humanized from QP190191
Regarding B6, the FACS reading in [1] worked out at 182000; in test [2] it was 75900; in [4], 141000; in [5], 183000; in test [6] it was 3390; in [7] it was 713. Also, the results for the FACS reading in test [8] and in test [9] were 8520 and 23600, respectively. The same molecule showed an MFI in [3] of 504000. Also, the response in test [10] was half-maximal at 0.466 µg/mL (EC50). The molecule further yielded a max in [10] of 182000. Moreover, the “CLDN18.2/CLDN18.1 (MFI ratio)” value in [11] was found to be 550.

Source of the values: patent US20230183352A1 (published 2023).
